Where no end group is shown, it is not given here. [ ]: non-standard residue; d: D form.
B1: peptide having the sequence TTSLQMRLYYPP (peptide)
peptide: TTSLQMRLYYPP
modifications: not fully specified
notes: L-peptide selected by regular phage display against L-PHF-6; also called TL28

Tests used:
[1] = target: full-length tau protein (441 amino acids) (UniProt P10636-8 1-441, limits assumed); test: cell-based or functional assay
[2] = target: T1, PHF-6 (6-mer tau fragment 306VQIVYK311); test: regular phage display and single-phage ELISA on L-PHF-6 fibrils
T1 construct: Used as fibrillary (aggregated) material; The mirror image selections used its synthetic D-enantiomer (D-PHF-6); also called L-PHF-6; aggregated tau partial peptide
T1 peptide: VQIVYK
Method: A phage display kit made by Biolabs was used for the following selections. At the same time, a regular phage display was carried out for the selection of L-peptides. In this regard, obtaining binding motifs after database searches allows conclusions to be drawn concerning previously unknown binding partners in vivo. Moreover, binding partners can later be tested as D-peptides or retro-inverso peptides. After selection, enriched phages were isolated and single-phage ELISA assays were carried out. […] The D-peptides Apt and Knt stem from selections against […]. Against L-PHF-6, a peptide having the sequence […] was selected, which we also analyzed in D-enantiomeric form (TD28) and as a retro-inverso peptide (TD28ri).

full-length tau protein (441 amino acids), sequence (P10636 other isoform, or with tags, fused parts or gaps limits assumed): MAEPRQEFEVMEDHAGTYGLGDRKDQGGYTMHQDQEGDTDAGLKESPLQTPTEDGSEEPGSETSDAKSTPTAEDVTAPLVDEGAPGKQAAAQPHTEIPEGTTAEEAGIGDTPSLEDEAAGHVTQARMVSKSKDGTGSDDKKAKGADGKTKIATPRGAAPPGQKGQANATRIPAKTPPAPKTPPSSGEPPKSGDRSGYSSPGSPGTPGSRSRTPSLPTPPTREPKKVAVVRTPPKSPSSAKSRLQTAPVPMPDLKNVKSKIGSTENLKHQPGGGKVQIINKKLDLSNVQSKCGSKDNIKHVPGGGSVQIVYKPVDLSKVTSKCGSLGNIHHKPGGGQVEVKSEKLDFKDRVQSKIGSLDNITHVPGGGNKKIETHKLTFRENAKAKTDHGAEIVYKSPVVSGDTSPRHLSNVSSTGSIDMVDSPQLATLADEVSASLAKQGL

Row | Binder | DLS particle size Day 1 (Tau + AA + peptide, 1:10) [1] | DLS particle size Day 8 (Tau + AA + peptide, 1:10) [1] | binding result [2]
1 | B1 | 5 fold | 4 fold | binds
2 | [dT][dL][dK][dI][dV][dW] [D-enantiomeric peptide tlkivw described by Sievers et al.] | 6 fold | 6 fold | –

— patent US20150299259A1 (FORSCHUNGSZENTRUM JUELICH, published 2015)
